Assay results published in PMC8510540.

Legend:
[1] = target: HIV-1_(YU-2) gp140 trimer; experiment: BLI (kinetic KD, value in parentheses)
[2] = target: soluble human FcγRIIA, biotinylated, tetramerized with streptavidin-PE (UniProt P12318); experiment: multiplex assay: antigen-conjugated beads stained with tetramerized receptor; settings: highest antibody concentration point, log10 Ab (nM) about 1.6 (estimated); parent: est. 4.1; read off a plot
[3] = target: soluble human FcγRIIIB, biotinylated, tetramerized with streptavidin-PE (UniProt O75015); experiment: as above; settings: highest antibody concentration point, log10 Ab (nM) about 1.6 (estimated); parent: est. 3.3; read off a plot
[4] = target: HIV-1_(YU-2) gp140 trimer; experiment: BLI (equilibrium KD)
[5] = target: soluble human FcγRIIB, biotinylated, tetramerized with streptavidin-PE (UniProt P31994); experiment: multiplex assay: antigen-conjugated beads stained with tetramerized receptor; settings: highest antibody concentration point, log10 Ab (nM) about 1.6 (estimated); parent: est. 3.4; read off a plot
[6] = target: soluble human FcγRIIIA, biotinylated, tetramerized with streptavidin-PE (UniProt P08637); experiment: as above; settings: highest antibody concentration point, log10 Ab (nM) about 1.6 (estimated); parent: est. 4.3; read off a plot
Chain of soluble human FcγRIIIA, biotinylated, tetramerized with streptavidin-PE (P08637 17-208): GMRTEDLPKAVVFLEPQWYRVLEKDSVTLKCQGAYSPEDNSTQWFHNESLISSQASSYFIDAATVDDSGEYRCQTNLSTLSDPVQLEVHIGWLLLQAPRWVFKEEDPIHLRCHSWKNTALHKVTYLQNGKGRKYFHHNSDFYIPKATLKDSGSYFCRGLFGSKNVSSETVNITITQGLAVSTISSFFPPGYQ

Chain of soluble human FcγRIIIB, biotinylated, tetramerized with streptavidin-PE (O75015 17-200): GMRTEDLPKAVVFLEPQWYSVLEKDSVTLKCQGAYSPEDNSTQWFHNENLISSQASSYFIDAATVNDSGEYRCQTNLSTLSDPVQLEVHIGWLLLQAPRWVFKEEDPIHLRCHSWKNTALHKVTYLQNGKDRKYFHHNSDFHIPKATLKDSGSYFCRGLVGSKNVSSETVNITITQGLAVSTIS
Chain of soluble human FcγRIIA, biotinylated, tetramerized with streptavidin-PE (P12318 34-217): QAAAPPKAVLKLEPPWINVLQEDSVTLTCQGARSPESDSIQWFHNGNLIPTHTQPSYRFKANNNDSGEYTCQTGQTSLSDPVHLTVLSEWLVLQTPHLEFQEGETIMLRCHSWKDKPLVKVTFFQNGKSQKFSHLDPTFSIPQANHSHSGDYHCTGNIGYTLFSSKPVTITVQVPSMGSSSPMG
Chain of soluble human FcγRIIB, biotinylated, tetramerized with streptavidin-PE (P31994 43-217): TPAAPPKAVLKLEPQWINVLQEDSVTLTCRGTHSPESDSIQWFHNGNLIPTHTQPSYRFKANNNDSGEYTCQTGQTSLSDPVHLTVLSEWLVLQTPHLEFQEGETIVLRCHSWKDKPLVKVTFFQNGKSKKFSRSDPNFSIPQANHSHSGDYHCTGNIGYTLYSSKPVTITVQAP

“IgG1 b12 (unmodified Fc) (from UniProt P01857) E430G” gave a Kd [1] of 2.26 nM, a response [2] of 4 log10 MFI and a response [3] of 3.1 log10 MFI. The Kd [4] was 0.9 nM.

For “IgG1 b12 (unmodified Fc) (from UniProt P01857) G236A; S267E; H268F; S324T; I332E”, the Kd [1] was 2.78 nM, the response [5] was 4.3 log10 MFI and the response [2] was 4.3 log10 MFI. It also gave a response [3] of 3.2 log10 MFI and a Kd [4] of 1.93 nM.

“IgG1 b12 (unmodified Fc) (from UniProt P01857) K322A” gave a Kd [1] of 2.56 nM and a Kd [4] of 2.95 nM.

For “IgG1 b12 (unmodified Fc) (from UniProt P01857) L234A; L235A”, the Kd [1] was 2.06 nM, the response [5] was 2 log10 MFI and the response [6] was 3.4 log10 MFI. It also gave a response [2] of 2 log10 MFI, a response [3] of 2 log10 MFI and a Kd [4] of 2.04 nM.
